The text below walks through data of the supplement of paper PMC10126150.

± gives the standard deviation of the averaged measurements.

This series relates to ATP. Kind of series: switch fluorescence ratio, 500 uM ATP over buffer (Cy3 cluster intensity, sum of 5 cycles each) (fold (ratio)); higher = stronger signal-on switching upon ATP binding; sequences stand for … in TCGTCGGCAGCGTCAGATGTGTATAAGAGACAGTTTTTTTTTTTTTTTTTTTTTTTTT…TC. The conditions noted are these: aptamer strand: ATP DNA aptamer (quencher-CACCTGGGGGAGTATTGCGGAGGAAGG + anchor), 100 nM annealed; ATP concentration: 500 uM. The essentials:
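Imaging in selection buffer was followed by imaging after 15 min with 500 uM ATP at 22 °C, for Cy3-labelled switching-strand clusters annealed to 100 nM quencher-labelled ATP aptamer on a modified Illumina MiSeq flow-cell. Five of these buffer/ATP cycles ran, separated by NaOH stripping and re-annealing. The fluorescence ratio per cluster is summed target-cycle over summed buffer-cycle Cy3 intensity, averaged per switch-domain sequence; clusters outside 100-1000 RFU were removed.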
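Further: ATP exposure 15 min at 22 °C before imaging.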

For the sequence TGGGAGGTTC, the switch fluorescence ratio was 1.03 ± 0.02.

Take TGGGAGTTGG: the switch fluorescence ratio stood at 1.03 ± 0.012.

Take TGGGATAAAG: the switch fluorescence ratio was determined as 0.9923 ± 0.0029.

TGGGATATGG: the switch fluorescence ratio is 0.996 ± 0.029.

Regarding TGGGATCGCT, the switch fluorescence ratio turned out to be 1.038 ± 0.0056.

As to TGGGATCTGG, the switch fluorescence ratio is 0.997 ± 0.037.

In the case of TGGGATGCAG, the switch fluorescence ratio is 1.01 ± 0.065.

As to TGGGATTATT, the switch fluorescence ratio was 1.02 ± 0.019.

Consider TGGGATTGGG, for which the switch fluorescence ratio stood at 0.974 ± 0.013.

Take TGGGATTGTT: the switch fluorescence ratio turned out to be 1 ± 0.035.

Turning to TGGGCAACCG, the switch fluorescence ratio was found to be 1.02 ± 0.065.

Regarding TGGGCAGGCT, the switch fluorescence ratio worked out at 0.998 ± 0.044.

For TGGGCATATG, the switch fluorescence ratio turned out to be 0.993 ± 0.014.

Regarding TGGGCATTAT, the switch fluorescence ratio was 1.04 ± 0.07.

In the case of TGGGCATTTT, the switch fluorescence ratio was determined as 0.987 ± 0.025.

For the sequence TGGGCCAGTG, the switch fluorescence ratio came to 1.05 ± 0.014.

Consider TGGGCCGCCC, for which the switch fluorescence ratio worked out at 1.07 ± 0.12.

TGGGCCGGGT: the switch fluorescence ratio was 1.03 ± 0.055.

In the case of TGGGCGAAAA, the switch fluorescence ratio was determined as 0.974 ± 0.045.

Take TGGGCGACCG: the switch fluorescence ratio stood at 0.99 ± 0.021.

In the case of TGGGCGGGGT, the switch fluorescence ratio amounted to 1.02 ± 0.031.

With TGGGCGGGTT, the switch fluorescence ratio was found to be 0.989 ± 0.032.

For TGGGCGGTGT, the switch fluorescence ratio came out at 0.992 ± 0.037.

Take TGGGCGTAAG: the switch fluorescence ratio is 1.02 ± 0.027.

Take TGGGCGTCGG: the switch fluorescence ratio is 0.999 ± 0.032.

Regarding TGGGCTACTC, the switch fluorescence ratio was determined as 1.1 ± 0.044.

Take TGGGCTAGAT: the switch fluorescence ratio was determined as 0.998 ± 0.053.

TGGGCTGGTA: the switch fluorescence ratio turned out to be 0.972 ± 0.025.

As for TGGGCTTAGT, the switch fluorescence ratio amounted to 0.992 ± 0.012.

In the case of TGGGGAAAGG, the switch fluorescence ratio was found to be 0.978 ± 0.034.

For TGGGGAAAGT, the switch fluorescence ratio is 1.03 ± 0.036.

On to TGGGGAACCT, for which the switch fluorescence ratio came to 0.96 ± 0.032.

With TGGGGAATAG, the switch fluorescence ratio is 1.04 ± 0.057.

Consider TGGGGACAAA, for which the switch fluorescence ratio is 0.986 ± 0.019.

As to TGGGGACGGA, the switch fluorescence ratio is 1.02 ± 0.054.

Take TGGGGAGAGG: the switch fluorescence ratio turned out to be 1.02 ± 0.037.

TGGGGAGCCT: the switch fluorescence ratio was 1.03 ± 0.041.

With TGGGGAGGAA, the switch fluorescence ratio was found to be 1 ± 0.011.

With TGGGGATATG, the switch fluorescence ratio was 0.997 ± 0.019.

Take TGGGGATCCG: the switch fluorescence ratio is 1.016 ± 0.0095.

For TGGGGATCGC, the switch fluorescence ratio is 0.983 ± 0.034.

With TGGGGATCTC, the switch fluorescence ratio amounted to 1.01 ± 0.024.

In the case of TGGGGATGGA, the switch fluorescence ratio was 0.998 ± 0.02.

Regarding TGGGGATGTT, the switch fluorescence ratio was 1.01 ± 0.049.

As for TGGGGATTCT, the switch fluorescence ratio is 0.976 ± 0.0054.

TGGGGCAGGG: the switch fluorescence ratio is 1.44 ± 0.62.

As to TGGGGCCGGG, the switch fluorescence ratio worked out at 1.01 ± 0.016.

In the case of TGGGGCGC, the switch fluorescence ratio came out at 1.01 ± 0.097.

As for TGGGGCGCAT, the switch fluorescence ratio came to 1.09 ± 0.064.

On to TGGGGCGCTG, for which the switch fluorescence ratio stood at 0.981 ± 0.011.

In the case of TGGGGGAACG, the switch fluorescence ratio is 0.984 ± 0.026.

TGGGGGACGA: the switch fluorescence ratio came to 0.954 ± 0.032.

On to TGGGGGAGAG, for which the switch fluorescence ratio was 1.01 ± 0.03.

Take TGGGGGAGCT: the switch fluorescence ratio was 1.05 ± 0.11.

On to TGGGGGAGGA, for which the switch fluorescence ratio was found to be 0.979 ± 0.02.

Turning to TGGGGGATGT, the switch fluorescence ratio was determined as 1.01 ± 0.013.

In the case of TGGGGGATTC, the switch fluorescence ratio came to 1.03 ± 0.067.

For TGGGGGCAGC, the switch fluorescence ratio was found to be 1.02 ± 0.025.

On to TGGGGGCAGG, for which the switch fluorescence ratio was found to be 1.01 ± 0.047.

Regarding TGGGGGCATA, the switch fluorescence ratio is 1.09 ± 0.1.

For the sequence TGGGGGCATT, the switch fluorescence ratio turned out to be 1.01 ± 0.033.

As for TGGGGGCCCG, the switch fluorescence ratio worked out at 0.995 ± 0.047.

Consider TGGGGGCCGT, for which the switch fluorescence ratio was 1.02 ± 0.14.

For the sequence TGGGGGCGGG, the switch fluorescence ratio came out at 1 ± 0.033.

Regarding TGGGGGCGTC, the switch fluorescence ratio amounted to 1.02 ± 0.036.

As for TGGGGGCTAG, the switch fluorescence ratio is 0.997 ± 0.037.

For TGGGGGCTGT, the switch fluorescence ratio was determined as 0.998 ± 0.016.

Take TGGGGGCTT: the switch fluorescence ratio was 1.03 ± 0.014.

As for TGGGGGGAGA, the switch fluorescence ratio amounted to 1.01 ± 0.045.

Regarding TGGGGGGCAC, the switch fluorescence ratio stood at 0.986 ± 0.043.

Regarding TGGGGGGGTG, the switch fluorescence ratio was determined as 1.01 ± 0.033.

For TGGGGGGGTT, the switch fluorescence ratio worked out at 1 ± 0.034.

Turning to TGGGGGGTCG, the switch fluorescence ratio amounted to 1.03 ± 0.051.

As to TGGGGGGTTC, the switch fluorescence ratio came out at 1.04 ± 0.082.

Turning to TGGGGGGTTT, the switch fluorescence ratio was determined as 1 ± 0.04.

Take TGGGGGTAGC: the switch fluorescence ratio amounted to 1.001 ± 0.0091.

TGGGGGTATT: the switch fluorescence ratio turned out to be 1.05 ± 0.16.

Take TGGGGGTCAC: the switch fluorescence ratio stood at 0.9632 ± 0.0067.
